Consider seven molecules from patent US6323395A, “Nucleotide sequences of maize and soybean β-Ketoacyl-Acyl Carrier Protein Synthase II and their use in the regulation of fatty acid content of oil” (Dow AgroSciences LLC, priority 1998, dated 2001).

In one data set the test system is KAS I. Nature of the data set: Synthase assay with cerulenin, condensation of [2-14C]malonyl-CoA with acyl-ACP. In kind it is biochemical. The conditions noted are these: cerulenin at concentrations of 5 μM or greater.
For data set [1], the system named is KAS II (soybean and maize KAS II expressed in E. coli). The description is as above. The conditions noted are these: cerulenin 50 μM. In kind it is biochemical. Here is the method: Malonyl CoA-ACP transacylase, hereafter MTA, was purified from E. coli as described by Alberts et al. (1969) Methods in Enzymology, 14:50-53. Transacylase reactions were performed in 100 μL of reaction mixture [100 mM KH2 PO4, pH 6.5, 100 μM ACP, 100 μM malonyl CoA, 10 nCi [2-^4 C] malonyl CoA (43.1 Ci/mol), and 2 mM dithiothreitol (DTT). ACP was incubated with an equal volume of 20 mM DTT for 15 min before being added to the reaction mixture. Reactions were started by adding 10 μL of either enzyme alone or enzyme that had been incubated for 15 min with an inhibitor and allowed to proceed for 5 min at 23° C. […] Pellets were washed 3× with 5% perchloric acid before being resuspended in 500 µL KH2 PO4 buffer and counted using scintillation. KAS II activity was measured by modifying the method of Garwin et al. (1980) J. Biological Chem. 255:11949-11956. […] The toluene layer (300 μL) was added to 5 mL Aquasol (NEN, Boston, Mass.) and incorporated [2-^4 ] malonyl CoA was determined by scintillation counting.
For enzymatic analysis of E coli expressed soybean and maize KAS II, substrates were made as follows: ACP (Sigma Chemical Co.) was further purified by three cycles of precipitation at pH 4.0 using 10% (v/v) acetic acid followed by resolubilization in 50 mM Tris-HCl, pH 8.0. […] Incorporated malonyl-CoA was extracted into toluene prior to quantitating by liquid scintillation counting. […]

For data set [2], the system named is maize β-Ketoacyl-Acyl Carrier Protein Synthase II (KAS II), purified from seed. Nature of the data set: KAS II activity assay, Km from double reciprocal plots. The conditions noted are these: cerulenin-Sepharose fraction, substrate not named, condensing activity towards C16:0-ACP. In kind it is biochemical. Here is the method: (§1) Malonyl CoA-ACP transacylase, hereafter MTA, was purified from E. coli as described by Alberts et al. (1969) Methods in Enzymology, 14:50-53. Transacylase reactions were performed in 100 μL of reaction mixture [100 mM KH2 PO4, pH 6.5, 100 μM ACP, 100 μM malonyl CoA, 10 nCi [2-^4 C] malonyl CoA (43.1 Ci/mol), and 2 mM dithiothreitol (DTT). ACP was incubated with an equal volume of 20 mM DTT for 15 min before being added to the reaction mixture. Reactions were started by adding 10 μL of either enzyme alone or enzyme that had been incubated for 15 min with an inhibitor and allowed to proceed for 5 min at 23° C. Reactions, which were terminated by adding 400 μL of ice cold 5% (v/v) perchloric acid, were then placed on ice for 20 min before being centrifuged for 5 min at 14,000×g. Pellets were washed 3× with 5% perchloric acid before being resuspended in 500 µL KH2 PO4 buffer and counted using scintillation. KAS II activity was measured by modifying the method of Garwin et al. (1980) J. Biological Chem. 255:11949-11956. […] The toluene layer (300 μL) was added to 5 mL Aquasol (NEN, Boston, Mass.) and incorporated [2-^4 ] malonyl CoA was determined by scintillation counting. […]

Data set [3] has as its system soybean β-Ketoacyl-Acyl Carrier Protein Synthase II (KAS II), purified from seed. Described as above. In kind it is biochemical. The following applies: cerulenin-Sepharose fraction, substrate not named, condensing activity towards C16:0-ACP. Here is the method: as §1
Data set [4] has as its target C16:0-ACP (palmitoyl-acyl carrier protein) made from bought ACP (Escherichia coli (strain K12)) (UniProt P0A6A8).
The target in data set [5] is C10:0-ACP (decanoic acid acyl-acyl carrier protein) made from bought ACP (Escherichia coli (strain K12)) (UniProt P0A6A8).
Sequence of C10:0-ACP (decanoic acid acyl-acyl carrier protein) made from bought ACP (Escherichia coli (strain K12)) (P0A6A8 2-78 limits assumed): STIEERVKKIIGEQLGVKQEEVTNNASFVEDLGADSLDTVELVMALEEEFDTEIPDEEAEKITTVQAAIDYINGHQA
Data set [6] has as its target C16:0-ACP (palmitoyl-acyl carrier protein) made from bought ACP (Escherichia coli (strain K12)) (UniProt P0A6A8). This is another data set of the same source.
Target sequence in this assay (P0A6A8 2-78 limits assumed): as above
Data set [7] concerns the molecule itself. Nature of the data set: gel filtration on Superdex 200: native molecular weight 82,000±5,000 against a subunit size of 46 kDa by SDS-PAGE. On the procedure: The molecular mass of native KAS II was determined by gel filtration using a Superdex 200 column (Pharmacia LKB Biotechnology, Inc.) equilibrated in 25 mM KH_2PO_4 (pH7.0). The column was calibrated using protein standards (BioRAD, Hercules, Calif.), which included blue dextran, thyroglobin (M_r, 670,000), bovine gamma globulin (Mr_r, 158,000), chicken ovalbumin (M_r, 44,000), equine myoglobin (M_r, 17,000), vitamin B-12 (M_r, 1,350).

The target in data set [8] is C10:0-ACP (decanoic acid acyl-acyl carrier protein) made from bought ACP (Escherichia coli (strain K12)) (UniProt P0A6A8). The source holds these as a separate data set.
For data set [9], the target named is C16:0-ACP (palmitoyl-acyl carrier protein) made from bought ACP (Escherichia coli (strain K12)) (UniProt P0A6A8). This is another data set of the same source.
Target sequence in this assay (P0A6A8 2-78 limits assumed): as above

Like-named read-outs stand apart in the source and are kept apart here.

As for `C/C=C/C/C=C/CCC(=O)[C@H]1O[C@H]1C(N)=O` [cerulenin], the “inhibition of KAS I activity” value with KAS I was “completely inhibits”. Further, in data set [1], the “inhibition of KAS II” value was “about 50%”. Regarding palmitoyl-ACP [C16:0-ACP], the Michaelis-Menten constant (Km) in [2] turned out to be 14.1 µM; in [3] it was 18 µM. Take “soybean β-Ketoacyl-Acyl Carrier Protein Synthase II purified from soybean seed (enzyme)”: the Km in [4] came out at 18 µM.

B1: first soybean KAS II expressed in E. coli from pDAB393 (enzyme)
chain: MAVALQPTQEVTTIKKPPTKQRRVVVTGLGVVTPLGHEPDIFYNNLLDGVSGISEIETFDCAEYPTRIAGEIKSFSTDGWVAPKLSKRMDKFMLYMLTAGKKALVDGGITDDVMDELNKDKCGVLIGSAMGGMKVFNDAIEALRISYKKMNPFCVPFATTNMGSAMLAMDLGWMGPNYSISTACATSNFCILNAANHIIRGEADVMLCGGSDAAIIPIGLGGFVACRALSQRNTDPTKASRPWDINRDGFVMGEGAGVLLLEELEHAKKRGATIYAEFLGGSFTCDAYHVTEPRPDGAGVILCIEKALAQSGVSKEDVNYINAHATSTPAGDLKEYQALMHCFGQNPKLRVNSTKSMIGHLLGAAGAVEAVATIQAIRTGWVHPNINLEKPDNGVDAKVLVGSKKERLDVKAALSNSFGFGGHNSSIIFAPYK
Take B1: in data set [5], the synthase activity: condensation of [2-14C]malonyl-CoA with C10:0-ACP to C12:0-ACP (counts per minute per minute) was determined as 207. For the same molecule, the synthase activity: condensation of [2-14C]malonyl-CoA with C16:0-ACP to C18:0-ACP (counts per minute per minute) in [6] was 1930. For the same molecule, in data set [7], the binding result is recorded as “binds”.

B2: maize β-Ketoacyl-Acyl Carrier Protein Synthase II purified from maize seed (enzyme)
chain: MAVALQAERSVIEKKKPDIKQRRVVVTGMGVVTPLGHDPDVFYNNLLDGVSGISEIERFDCSNFPTRIAGEIKSFSTDGWVAPKLAKRMDKFMLYLITAGKKALENGGLTEELRNELDKTRCGVLIGSAMGGMKVFNDAIEALRVSYKKMNPFCVPFATTNMGSAILAMDLGWMGPNYSISTACATSNFCILNAANHIRRGEADVMLCGGSDAPLIPIGLGGFVACRALSQRNSDPTKASRPWDMGRDGFVMGEGAGVLVLEELEHAKERGATIYAEFLGGSFTCDAYHMTEPHPEGRGIALCIEKALADAGVAREEINYVNAHATSTQAGDLKEYEAIVRCFRQNPQLRVNSTKSMTGHLIGAAGGIEAVASIQAIRTGWVHPNLNLENPEDTVDVGVLVGSQKERCEVKVALSNSFGFGGHNSSILFAPFK
As to B2, the Km in [4] is 14.1 µM.

B3: maize KAS II expressed in E. coli from pDAB388 (enzyme)
chain: B2 chain
B3 showed a synthase activity: condensation of [2-14C]malonyl-CoA with C10:0-ACP to C12:0-ACP (counts per minute per minute) in data set [8] of 734. The same molecule returned a synthase activity: condensation of [2-14C]malonyl-CoA with C16:0-ACP to C18:0-ACP (counts per minute per minute) in data set [9] of 909.

B4: second soybean KAS II expressed in E. coli from pDAB394 (enzyme)
chain: MAVALQPTQEITTIKKPPTKQRRVVVTGLGVVTPLGHEPDIFYNNLLDGASGISEIETFDCAEYPTRIAGEIKSFSTDGWVAPKLSKRMDKFMLYMLTAGKKALVDGGITDDVMDELNKEKCGVLIGSAMGGMKVFNDAIEALRISYKKMKPFCVPFATTNMGSAMLAMDLGWMGPNYSISTACATSNFCILNAANHIIRGEADVMLCGGSDAAIIPIGLGGFVACRALSQRNTDPTKASRPWDINRDGFVMGEGAGVLLLEELEHAKERGATIYAEFLGGSFTCDAYHVTEPRPDGAGVILCIEKALAQSGVSKEDVNYINAHATSTPAGDLKEYQALMHCFGQNPELRVNSTKSMIGHLLGAAGGVAAVATIQAIRTGWVHPNINLENPDNGVDAKVLVGSKKERLDVKAALSNSFGFGGHNSSIIFAPY
Molecule B4 displayed a synthase activity: condensation of [2-14C]malonyl-CoA with C10:0-ACP to C12:0-ACP (counts per minute per minute) in [8] of 890. The synthase activity: condensation of [2-14C]malonyl-CoA with C16:0-ACP to C18:0-ACP (counts per minute per minute) in data set [9] is 2160.
